Reference: publication PMC9917171, “Yet Another Similarity between Mitochondrial and Bacterial Ribosomal Small Subunit Biogenesis Obtained by Structural Characterization of RbfA from S. aureus” (International Journal of Molecular Sciences, 2023)

Target: ribosomal binding factor A (RbfA) from Staphylococcus aureus, histidine tag at the N-terminus (S. aureus, UniProt A5ISF4 1-116)
Assay: cryo-EM structure; 30S-RbfA complex reconstituted by mixing mature S. aureus 30S subunits and recombinant RbfA (1:30); overall resolution 2.9 Å
Settings: both partners purified

B1: ribosomal protein S7 of the S. aureus 30S subunit (natural protein)
chain: MPRKGSVPKRDVLPDPIHNSKLVTKLINKIMLDGKRGTAQRILYSAFDLVEQRSGRDALEVFEEAINNIMPVLEVKARRVGGSNYQVPVEVRPERRTTLGLRWLVNYARLRGEKTMEDRLANEILDAANNTGGAVKKREDTHKMAEANKAFAHYRW
notes: 30S ribosomal protein S7, S. aureus RN6390; model built from the published S. aureus 30S (PDB 5ND8); Stood in the assay as part of the whole 30S subunit (16S rRNA and the other small subunit proteins; S21 and S1 not seen in the density); also called S7 head protein; source: endogenous, within 30S subunits obtained by dissociation of 70S ribosomes purified from S. aureus RN6390
B1: binds.
